According to PMC3466315, “Influence of PAS Domain Flanking Regions on Oligomerisation and Redox Signalling By NifL” (PLoS ONE, 2012):

Columns and labels:
[1] = target: the molecule itself; assay: SEC; Superose 12 10/300 GL, 0.5 ml/min, 50 mM Tris-HCl, 10% v/v glycerol, 200 mM NaCl, pH 8.0; 1-162 constructs at five different protein concentrations; self-association, dimer-tetramer equilibrium
[2] = target: the molecule itself; assay: SEC; Superose 12 10/300 GL, 0.5 ml/min, 50 mM Tris-HCl, 10% v/v glycerol, 200 mM NaCl, pH 8.0; 1-162 constructs at the highest injected concentration, 424 µM; self-association
[3] = target: the molecule itself; assay: SEC; Superose 12 10/300 GL, 0.5 ml/min, 50 mM Tris-HCl, 10% v/v glycerol, 200 mM NaCl, pH 8.0; 1-162 constructs of Table S1, protein concentration not given; self-association
[4] = target: the molecule itself; assay: SEC; Superose 12 10/300 GL, 0.5 ml/min, 50 mM Tris-HCl, 10% v/v glycerol, 200 mM NaCl, pH 8.0; protein at 106 µM (in monomeric terms); 1-140 constructs; self-association

B1: NifL PAS1 construct with the N-terminal region and the C-terminal linker helix, residues 1-162 (domain or fragment, Azotobacter vinelandii, UniProt P30663 1-162, looked up)
chain: MTPANPTLSNEPQAPHAESDELLPEIFRQTVEHAPIAISITDLKANILYANRAFRTITGYGSEEVLGKNESILSNGTTPRLVYQALWGRLAQKKPWSGVLVNRRKDKTLYLAELTVAPVLNEAGETIYYLGMHRDTSELHELEQRVNNQRLMIEAVVNAAPA
notes: NifL, Azotobacter vinelandii, residues 1-162 (PAS1 with both flanking regions); PAS1 carries an FAD cofactor; also called NifL(1-162); 1-162 construct; source: E. coli BL21(DE3)pLysS, purified
For B1, the “stoichiometry N” value [1] was roughly 2, the “stoichiometry N” value [2] was 2.8 monomers and the “stoichiometry N” value [3] was 2.5 monomers.

B2: NifL 1-162 PAS1 construct after removal of the first 20 residues (domain or fragment, Azotobacter vinelandii, UniProt P30663 21-162, looked up)
chain: ELLPEIFRQTVEHAPIAISITDLKANILYANRAFRTITGYGSEEVLGKNESILSNGTTPRLVYQALWGRLAQKKPWSGVLVNRRKDKTLYLAELTVAPVLNEAGETIYYLGMHRDTSELHELEQRVNNQRLMIEAVVNAAPA
notes: NifL, Azotobacter vinelandii; the 1-162 construct without its first 20 residues; The limits are worked out from 'removal of the first 20 residues' of the 1-162 construct; source: E. coli BL21(DE3)pLysS, purified
B2 was tested, and the “stoichiometry N” value [3] was 2.

B3: NifL(1-162) ΔN147-L151 (domain or fragment, Azotobacter vinelandii, UniProt P30663 1-162, looked up)
chain: MTPANPTLSNEPQAPHAESDELLPEIFRQTVEHAPIAISITDLKANILYANRAFRTITGYGSEEVLGKNESILSNGTTPRLVYQALWGRLAQKKPWSGVLVNRRKDKTLYLAELTVAPVLNEAGETIYYLGMHRDTSELHELEQRVMIEAVVNAAPA
notes: NifL, Azotobacter vinelandii, residues 1-162 with N147-L151 of the linker helix deleted; also called construct lacking residues N147-L151; source: E. coli BL21(DE3)pLysS, purified
B3 was tested, and the “stoichiometry N” value [2] was 3.6 monomers.

B4: NifL(1-162) ΔR150-L151 (domain or fragment, Azotobacter vinelandii, UniProt P30663 1-162, looked up)
chain: MTPANPTLSNEPQAPHAESDELLPEIFRQTVEHAPIAISITDLKANILYANRAFRTITGYGSEEVLGKNESILSNGTTPRLVYQALWGRLAQKKPWSGVLVNRRKDKTLYLAELTVAPVLNEAGETIYYLGMHRDTSELHELEQRVNNQMIEAVVNAAPA
notes: NifL, Azotobacter vinelandii, residues 1-162 with R150-L151 of the linker helix deleted; source: E. coli BL21(DE3)pLysS, purified
B4: binds [1].

B5: NifL(1-162) ΔL151 (domain or fragment, Azotobacter vinelandii, UniProt P30663 1-162, looked up)
chain: MTPANPTLSNEPQAPHAESDELLPEIFRQTVEHAPIAISITDLKANILYANRAFRTITGYGSEEVLGKNESILSNGTTPRLVYQALWGRLAQKKPWSGVLVNRRKDKTLYLAELTVAPVLNEAGETIYYLGMHRDTSELHELEQRVNNQRMIEAVVNAAPA
notes: NifL, Azotobacter vinelandii, residues 1-162 with L151 of the linker helix deleted; source: E. coli BL21(DE3)pLysS, purified
B5: binds [1].

B6: NifL PAS1 domain construct, residues 1-140 (domain or fragment, Azotobacter vinelandii, UniProt P30663 1-140, looked up)
chain: MTPANPTLSNEPQAPHAESDELLPEIFRQTVEHAPIAISITDLKANILYANRAFRTITGYGSEEVLGKNESILSNGTTPRLVYQALWGRLAQKKPWSGVLVNRRKDKTLYLAELTVAPVLNEAGETIYYLGMHRDTSELH
notes: NifL, Azotobacter vinelandii, residues 1-140 (PAS1 domain with the N-terminal flanking region, without the C-terminal linker helix); PAS1 carries an FAD cofactor; also called NifL(1-140); 1-140 PAS1 domain construct; source: E. coli BL21(DE3)pLysS, purified; not shown: hexa-histidine-containing tag (26 additional residues, from the vector pETNdeM-11), N-terminal, kept
In the case of B6, the “stoichiometry N” value [4] is reported as roughly 4.

B7: NifL PAS1 domain construct, residues 21-140 (domain or fragment, Azotobacter vinelandii, UniProt P30663 21-140, looked up)
chain: ELLPEIFRQTVEHAPIAISITDLKANILYANRAFRTITGYGSEEVLGKNESILSNGTTPRLVYQALWGRLAQKKPWSGVLVNRRKDKTLYLAELTVAPVLNEAGETIYYLGMHRDTSELH
notes: NifL, Azotobacter vinelandii, residues 21-140; also called construct lacking the entire N-terminal extension; source: E. coli BL21(DE3)pLysS, purified; not shown: hexa-histidine-containing tag (26 additional residues, from the vector pETNdeM-11), N-terminal, kept
For B7, the “stoichiometry N” value [4] was 2.
